The text below walks through data of the RNAGym collection of RNA variant scans (doi:10.1093/molbev/msab373).

B1: Azoarcus group I ribozyme (parent)
chain: GUGCCUUGCGCCGGGAAACCACGCAAGGGAUGGUGUCAAAUUCGGCGAAACCUAAGCGCCCGCCCGGGCGUAUGGCAACGCCGAGCCAAGCUUCGGCGCCUGCGCCGAUGAAGGUGUAGAGACUAGACGGCACCCACCUAAGGCAAACGCUAUGGUGAAGGCAUAGUCCAGGGAGUGGCGAAAGUCACACAAACCGG

Variants of B1 are the subject of the data set. The data set can be described thus: reverse-splicing fitness (ratio to wild type); higher = more active; in vitro selection; Mg2+ level not given. Summed up: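 An in vitro group I ribozyme library with randomized positions was T7-transcribed and gel-purified. In triplicate, 10 pmol RNA in EPPS pH 7.5 was reacted with 50 pmoles of a 30-nt RNA substrate for 1 h at 37 °C across several added MgCl2 levels (1–48 mM), then stopped with EDTA. Products were reverse transcribed from a substrate-complementary primer, PCR-amplified and sequenced (HiSeq 4000). Fitness is a variant's read proportion after selection over that before, normalised to wild type.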
In the case of A111U A120G A145C C169G U176G, the reverse-splicing fitness came out at 0.00442.
The result for A111U A120C A145C C150G C169G U176C reads 0.0059.
With A111U A120C A145C C150G C169G U176G, the reverse-splicing fitness came out at 0.00475.
The value for A111U A120C A145C C150G C169G U176A was 0.00898; that for A111U A120C A145G C169G U176A was 0.019; that for A111U A120C A145G C169G U176C was 0.0229.
The result for A111U A120C A145G C169G U176G reads 0.00461; that for A111U A120G A145C C150G C169U U176G, 0.00521; that for A111U A120G A145C C150G C169U U176A, 0.0163.
The result for A111U A120G A145C C150G C169U U176C reads 0.0146.
As for A111U A120C A145U C169G U176C, the reverse-splicing fitness stood at 0.00915.
The result for A111U A120C A145U C169G U176A reads 0.00823; that for A111U A120C A145U C169G U176G, 0.00415; that for A111U A120G A145C, 0.159.
The value for A111U A120G A145G was 0.175; that for A111U A120C A145G C150U U176G was 0.0319; that for A111U A120C A145G C150U U176C was 0.25.
The value for A111U A120C A145G C150U U176A was 0.176; that for A111U A120C was 0.587.
In the case of A111U A120G, the reverse-splicing fitness came out at 0.174.
The value for A111U A120C A145C C150A U176A was 0.0267; that for A111U A120C A145C C150A U176C was 0.0236.
A111U A120C A145C C150A U176G: the reverse-splicing fitness was 0.00877.
The result for A111U A120G A145C C150A C169G U176G reads 0.00529.
The value for A111U A120G A145C C150A C169G U176A was 0.0261; that for A111U A120G A145C C150A C169G U176C was 0.015.
The value for A111U A120G A145C C150U U176G was 0.00458.
Turning to A111U A120G A145C C150U U176C, the reverse-splicing fitness stood at 0.0201.
The value for A111U A120G A145C C150U U176A was 0.0191; that for A111U A120C C150U C169A U176A was 0.018.
In the case of A111U A120C C150U C169A U176C, the reverse-splicing fitness came out at 0.0126.
The result for A111U A120C C150U C169A U176G reads 0.00509; that for A111U A120C A145G C150G C169U U176C, 0.0127.
The value for A111U A120C A145G C150G C169U U176G was 0.00652; that for A111U A120C A145G C150G C169U U176A was 0.0118.
The result for A111U A120C C150A C169U U176G reads 0.00713; that for A111U A120C C150A C169U U176A, 0.0243.
As for A111U A120C C150A C169U U176C, the reverse-splicing fitness worked out at 0.0196.
For the variant A111U A120C A145U C150A C169U, the reverse-splicing fitness turned out to be 0.0213.
The value for A111U A120C A145U C150A C169G was 0.00755; that for A111U A120C A145U C150A C169A was 0.00875; that for A111U A120C A145C C150G C169U U176C was 0.0144.
The result for A111U A120C A145C C150G C169U U176G reads 0.00478; that for A111U A120C A145C C150G C169U U176A, 0.0109; that for A111U A120C C150A C169U, 0.0239.
A111U A120C C150A C169G: the reverse-splicing fitness worked out at 0.00847.
The value for A111U A120C C150A C169A was 0.0105.
The value for A111U A120C A145C C150A C169U U176C was 0.0123; that for A111U A120C A145C C150A C169U U176A was 0.0169; that for A111U A120C A145C C150A C169U U176G was 0.00524.
On to A111G U176A, for which the reverse-splicing fitness was determined as 0.794.
The value for A111G U176C was 0.752; that for A111G U176G was 0.354; that for A111U A120C A145G C150A C169G U176C was 0.0246.
The result for A111U A120C A145G C150A C169G U176G reads 0.00488; that for A111U A120C A145G C150A C169G U176A, 0.0161.
The value for A111U A120C C150A U176A was 0.0374; that for A111U A120C C150A U176C was 0.0574; that for A111U A120C C150A U176G was 0.0118.
For the variant A111U A120C A145U C150G C169U, the reverse-splicing fitness turned out to be 0.0242.
The result for A111U A120C A145U C150G C169A reads 0.00829; that for A111U A120C A145U C150G C169G, 0.00662.
For the variant A111U A120G A145C C169A, the reverse-splicing fitness was 0.11.
With A111U A120G A145C C169G, the reverse-splicing fitness turned out to be 0.193.
The result for A111U A120G A145C C169U reads 0.151.
The result for A111U A120C A145U C150A C169G U176A reads 0.0112.
Turning to A111U A120C A145U C150A C169G U176G, the reverse-splicing fitness amounted to 0.00518.
The result for A111U A120C A145U C150A C169G U176C reads 0.0106; that for A111U A120G A145C C150G C169A U176G, 0.00416.
For the variant A111U A120G A145C C150G C169A U176C, the reverse-splicing fitness amounted to 0.00757.
The value for A111U A120G A145C C150G C169A U176A was 0.00822.
For the variant A111U A120C A145G C150U C169U U176C, the reverse-splicing fitness came out at 0.0389.
The value for A111U A120C A145G C150U C169U U176A was 0.0282.
For the variant A111U A120C A145G C150U C169U U176G, the reverse-splicing fitness amounted to 0.0053.
For the variant A111U A120C A145C C150U C169A U176A, the reverse-splicing fitness stood at 0.00887.
The result for A111U A120C A145C C150U C169A U176C reads 0.00539; that for A111U A120C A145C C150U C169A U176G, 0.00529.
The value for A111U A120C A145G C150U C169A was 0.0113; that for A111U A120C A145G C150U C169G was 0.00992; that for A111U A120C A145G C150U C169U was 0.148.
The result for A111U A120C A145U C169A U176C reads 0.0106.
On to A111U A120C A145U C169A U176A, for which the reverse-splicing fitness turned out to be 0.00962.
The value for A111U A120C A145U C169A U176G was 0.0044.
